Consider 7 molecules from patent US20230303690A1 (published 2023).

To fix the notation:
B1: sdAb fusion 25-17-1 (Fc fusion, not shown: a dimerising Fc or GST)
chain: QLQLVESGGGLVQAGGSLRLSCAASGSIESFSFMGWYRQAPGKQRELVAGFTGAASLSFSTYTDAVKGRFTISRDNAKNTVYLQMNSLKPEDTAVYFCNVDPWSQSWPGRYWGQGTQVTVSSGGGGSQLQLVESGGGLVQPGGSLRLSCAASGLTLDGYAIGWFRQAPGKEREGLACISGSDGSTHYLDSVKGRFTISRDNGKNTMALQMNSLQFGDTAIYYCAARRGSCSGSWTYWGQGTQVTVSS
B2: sdAb No. 2018 (VHH, part only)
VHH: QVQLVESGGGLVQPGGSLKLSCTASGFTLDYYAIAWFRQAPGKEREAVSCISSSDGSTRYADSVKGRFTISRDNAKNTVYLQMNSLKPEDTAVYYCAADPYGDCRGPYDYWGQGTQVTVSS
modifications: possible Fc not stated
B3: sdAb fusion 25-17-2 (Fc fusion, not shown: a dimerising Fc or GST)
chain: QLQLVESGGGLVQAGGSLRLSCAASGSIESFSFMGWYRQAPGKQRELVAGFTGAASLSFSTYTDAVKGRFTISRDNAKNTVYLQMNSLKPEDTAVYFCNVDPWSQSWPGRYWGQGTQVTVSSGGGGSGGGGSQLQLVESGGGLVQPGGSLRLSCAASGLTLDGYAIGWFRQAPGKEREGLACISGSDGSTHYLDSVKGRFTISRDNGKNTMALQMNSLQFGDTAIYYCAARRGSCSGSWTYWGQGTQVTVSSEPKSCDKTHTCPPCPAPELLG
B4: sdAb fusion 25-27-2 (Fc fusion, not shown: a dimerising Fc or GST)
chain: QLQLVESGGGLVQAGGSLRLSCAASGSIESFSFMGWYRQAPGKQRELVAGFTGAASLSFSTYTDAVKGRFTISRDNAKNTVYLQMNSLKPEDTAVYFCNVDPWSQSWPGRYWGQGTQVTVSSGGGGSGGGGSQVQLVESGGGLVQPGGSLRLSCAASGFTLDYYAIGWFRQAPGKEREGVSCIRSSDGSTYYADSVKGRFTISSDNTKNTVYLQMNSLKPEDTAVYYCATDRYSDCRGPYENWGQGTQVTVSSEPKSCDKTHTCPPCPAPELLG
B5: sdAb fusion 25-27-3 (Fc fusion, not shown: a dimerising Fc or GST)
chain: QLQLVESGGGLVQAGGSLRLSCAASGSIESFSFMGWYRQAPGKQRELVAGFTGAASLSFSTYTDAVKGRFTISRDNAKNTVYLQMNSLKPEDTAVYFCNVDPWSQSWPGRYWGQGTQVTVSSGGGGSGGGGSGGGGSQVQLVESGGGLVQPGGSLRLSCAASGFTLDYYAIGWFRQAPGKEREGVSCIRSSDGSTYYADSVKGRFTISSDNTKNTVYLQMNSLKPEDTAVYYCATDRYSDCRGPYENWGQGTQVTVSSEPKSCDKTHTCPPCPAPELLG
B6: sdAb No. 2093 (VHH, part only)
VHH: QVQLVESGGGLVQPGGSLTLSCVASGFTLDYYTVGWFRQVPGKEREGISCISSSDGSTRYADSVKGRFTISRDNAKNTMSLQMNSLKPEDTAVYYCATPGIHGTSCNTSWKYYGQGTQVTVSS
modifications: possible Fc not stated
B7: sdAb No. 2015 (VHH, part only)
VHH: QLQLVESGGGLAQTGGSLRLSCAAAGFTFDDTATGWFRQAPGKNREGVACISSSDGRIHYIDSAKGRFTISKDNAKKTVYLQMDSLKPEDTAVYYCAAARKGSTDCQGAIWGSWGQGTQVIVSS
modifications: possible Fc not stated

human LAG3 expressed on cells (human), sequence (P18627 23-525): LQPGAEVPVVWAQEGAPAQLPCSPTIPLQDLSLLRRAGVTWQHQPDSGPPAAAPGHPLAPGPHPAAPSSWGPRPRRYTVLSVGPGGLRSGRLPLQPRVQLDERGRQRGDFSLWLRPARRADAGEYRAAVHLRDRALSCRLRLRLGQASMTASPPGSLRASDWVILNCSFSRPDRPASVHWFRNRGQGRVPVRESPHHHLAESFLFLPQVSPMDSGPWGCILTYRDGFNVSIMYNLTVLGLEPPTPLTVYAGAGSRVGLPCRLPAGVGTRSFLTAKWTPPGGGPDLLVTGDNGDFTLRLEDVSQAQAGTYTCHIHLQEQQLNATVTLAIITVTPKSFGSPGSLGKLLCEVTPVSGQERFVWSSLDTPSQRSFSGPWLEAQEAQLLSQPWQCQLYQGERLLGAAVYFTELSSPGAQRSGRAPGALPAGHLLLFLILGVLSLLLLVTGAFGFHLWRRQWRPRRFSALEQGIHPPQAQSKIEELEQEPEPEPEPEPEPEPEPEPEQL

This assay concerns the target human LAG3 expressed on cells (human) (UniProt P18627). Briefly: cell-based or functional assay.
For the molecule B1, the Efficacy (Normalized to BMS) amounted to 106%; the IL-2, % of BMS, at 0.001016105 ug/mL stood at 0.0133%; the IL-2, % of BMS, at 0.003048316 ug/mL came out at 4.1%; the IL-2, % of BMS, at 0.009144947 ug/mL is -0.836%. In addition, the IL-2, % of BMS, at 0.027434842 ug/mL is -2.73%; the IL-2, % of BMS, at 0.082304527 ug/mL is -5.85%; the IL-2, % of BMS, at 0.24691358 ug/mL came out at 6.88%; the IL-2, % of BMS, at 0.740740741 ug/mL came to 34%. Moreover, the IL-2, % of BMS, at 2.222222222 ug/mL worked out at 82.7%; the IL-2, % of BMS, at 6.666666667 ug/mL came to 89.2%; the IL-2, % of BMS, at 20 ug/mL was determined as 110%; the Jurkat T-hLAG3 Assay EC50 was found to be 10.9 nM.
For the molecule B2, the IL-2, % of BMS, at 0.005080526 ug/mL was 0.0212%; the IL-2, % of BMS, at 0.015241579 ug/mL came to 5.32%; the IL-2, % of BMS, at 0.045724737 ug/mL stood at 2.83%; the IL-2, % of BMS, at 0.137174211 ug/mL was determined as 9.41%. In addition, the IL-2, % of BMS, at 0.411522634 ug/mL amounted to 15.3%; the IL-2, % of BMS, at 1.234567901 ug/mL was found to be 22.8%; the IL-2, % of BMS, at 3.703703704 ug/mL worked out at 28.6%; the IL-2, % of BMS, at 11.11111111 ug/mL was found to be 34.6%. Further, the IL-2, % of BMS, at 33.33333333 ug/mL is 36.9% and the IL-2, % of BMS, at 100 ug/mL worked out at 37%.
In the case of B3, the Efficacy (Normalized to BMS) was 102%; the IL-2, % of BMS, at 0.001016105 ug/mL was -0.00048%; the IL-2, % of BMS, at 0.003048316 ug/mL was -2.52%; the IL-2, % of BMS, at 0.009144947 ug/mL is -0.621%. In addition, the IL-2, % of BMS, at 0.027434842 ug/mL came to 12%; the IL-2, % of BMS, at 0.082304527 ug/mL is -7.68%; the IL-2, % of BMS, at 0.24691358 ug/mL is -2.21%; the IL-2, % of BMS, at 0.740740741 ug/mL turned out to be 16.4%. Besides, the IL-2, % of BMS, at 2.222222222 ug/mL is 77.7%; the IL-2, % of BMS, at 6.666666667 ug/mL was 85.1%; the IL-2, % of BMS, at 20 ug/mL was determined as 111%; the Jurkat T-hLAG3 Assay EC50 stood at 14 nM.
Regarding B4, the Efficacy (Normalized to BMS) turned out to be 106%; the IL-2, % of BMS, at 0.001016105 ug/mL came out at 0.0147%; the IL-2, % of BMS, at 0.003048316 ug/mL amounted to 3.76%; the IL-2, % of BMS, at 0.009144947 ug/mL turned out to be 5.39%. The IL-2, % of BMS, at 0.027434842 ug/mL is 11.1%; the IL-2, % of BMS, at 0.082304527 ug/mL worked out at 6.04%; the IL-2, % of BMS, at 0.24691358 ug/mL turned out to be 17.2%; the IL-2, % of BMS, at 0.740740741 ug/mL is 62%. In addition, the IL-2, % of BMS, at 2.222222222 ug/mL stood at 114%; the IL-2, % of BMS, at 6.666666667 ug/mL was 123%; the IL-2, % of BMS, at 20 ug/mL was 124%.
Regarding B5, the IL-2, % of BMS, at 0.001016105 ug/mL amounted to 0.0673%; the IL-2, % of BMS, at 0.003048316 ug/mL was -5.25%; the IL-2, % of BMS, at 0.009144947 ug/mL turned out to be 2.64%; the IL-2, % of BMS, at 0.027434842 ug/mL is -8.9%. Further, the IL-2, % of BMS, at 0.082304527 ug/mL is -0.289%; the IL-2, % of BMS, at 0.24691358 ug/mL came out at 3.53%; the IL-2, % of BMS, at 0.740740741 ug/mL was found to be 17%; the IL-2, % of BMS, at 2.222222222 ug/mL amounted to 58.4%. For the same molecule, the IL-2, % of BMS, at 6.666666667 ug/mL came out at 120% and the IL-2, % of BMS, at 20 ug/mL came out at 168%.
For the molecule B6, the IL-2, % of BMS, at 0.005080526 ug/mL was -0.00098%; the IL-2, % of BMS, at 0.015241579 ug/mL was -3.19%; the IL-2, % of BMS, at 0.045724737 ug/mL turned out to be 5.73%; the IL-2, % of BMS, at 0.137174211 ug/mL stood at 0.267%. In addition, the IL-2, % of BMS, at 0.411522634 ug/mL amounted to 1.04%; the IL-2, % of BMS, at 1.234567901 ug/mL was determined as 4%; the IL-2, % of BMS, at 3.703703704 ug/mL turned out to be 14.9%; the IL-2, % of BMS, at 11.11111111 ug/mL turned out to be 20%. Besides, the IL-2, % of BMS, at 33.33333333 ug/mL was found to be 14.4% and the IL-2, % of BMS, at 100 ug/mL is 22.2%.
With B7, the IL-2, % of BMS, at 0.005080526 ug/mL stood at 0.0179%; the IL-2, % of BMS, at 0.015241579 ug/mL came to 1.06%; the IL-2, % of BMS, at 0.045724737 ug/mL stood at 0.925%; the IL-2, % of BMS, at 0.137174211 ug/mL is 1.92%. Besides, the IL-2, % of BMS, at 0.411522634 ug/mL was found to be 1.8%; the IL-2, % of BMS, at 1.234567901 ug/mL came to 10.6%; the IL-2, % of BMS, at 3.703703704 ug/mL is 19.1%; the IL-2, % of BMS, at 11.11111111 ug/mL came to 33.6%. Further, the IL-2, % of BMS, at 33.33333333 ug/mL was found to be 39.8% and the IL-2, % of BMS, at 100 ug/mL amounted to 46.6%.
